In US20070207086A1 (published 2007):
Positions of bridges follow the written chain, without caps; N, C: chain ends. No end group written: not given here.

Key:
[1] = target: T1, Recombinant purified HER2 receptor composed of the ectodomain of HER2 fused to the Fc of human IgG (human, UniProt P04626 23-652, limits assumed); assay: Biacore SPR, HER2 ectodomain-Fc immobilized, peptide as analyte
T1 construct: extracellular domain; Provided by Dr. Che Law, Xcyte Therapeutics; amine-coupled to the Biacore chip (3500 RU); also called immobilized HER2; p185; not shown: Fc of human IgG
Experimental: (§1) Binding experiments were performed with the surface plasmon resonance based biosensor instrument Biacore 3000 (Biacore AB, Uppsala, Sweden) at 25° C. Recombinant purified HER2 receptor composed of the ectodomain of HER2 fused to the Fc of human IgG was provided by Dr. Che Law, Xcyte Therapeutics, Seattle, Wash. Immobilization of HER2 in the sensor surface was performed following the standard amine coupling procedure according to manufacturer's instructions. Briefly, 35 μL of a solution containing 0.2M N-ethyl-N-(dimethylaminopropyl) carbodiimide (EDC) and 0.05 M N-hydroxysuccinimide (NHS) were injected at a flow rate of 5 μL/min to activate carboxyl groups on the sensor chip surface. HER2 (40 ng/mL in 10 mM NaOAc buffer, pH 5.0) was flowed over the chip surface at a flow rate of 20 μL/min until the desired level bound protein was reached. Unreacted protein washed out and unreacted activated groups were blocked by the injection of 35 μL of 1 M ethanolamine at 5 μL/min. […] A reference surface was generated simultaneously under the same conditions but without HER2 injection and used as a blank to correct for instrument and buffer artifacts. Peptides were injected at variable concentrations at 20 μL/min flow rate and binding to the HER2 receptor immobilized on the chip was monitored in real time. Each sensorgram consists of an association phase (first 240s), reflecting binding of the injected peptide to the receptor, followed by a dissociation phase (300s), during which the running buffer is passed over the chip and the bound peptide is being washed off the receptor surface.

[2] = target: human HER2 receptor overexpressed on T6-17 cells (NIH3T3-derived) (human, UniProt P04626 23-1255); assay: cell-based or functional assay
[3] = target: T1, Recombinant purified HER2 receptor …; assay: Biacore SPR, immobilized HER2-Fc
Experimental: as §1

[4] = target: T1, Recombinant purified HER2 receptor …; assay: Biacore competition, AHNP preinjected 0-90 µM, then 1 nM rhumAb 4D5 (competitor) on immobilized HER2-Fc; initial rate of antibody binding
Experimental: as §1, with “Each sensorgram consists of an association phase (first 240s), reflecting binding of the injected peptide to the receptor, followed by a dissociation phase (300s), during which the running buffer is passed over the chip and the bound peptide is being washed off the receptor surface.” left out

B1: AHNP analogue 5, FCDGFYACYMDVK-NH2 (peptide)
peptide: FCDGFYACYMDVK-NH2
modifications: disulfide 2-8 (inferred)
notes: Lys added as C-terminal residue; also called peptide 5
- Kd [1]: 830 nM
- koff [1]: 0.000512 s⁻¹
- kon [1]: 617 M⁻¹ s⁻¹

B2: AHNP analogue 9, FCDGFYACYMDV-OH (linear, not cyclized) (peptide)
peptide: FCDGFYACYMDV-OH
modifications: cysteine pairing not given here
notes: also called peptide 9; linear analogue 9
- % inhibition (inhibition of T6-17 cell proliferation in MTT assays, 1 µg/mL peptide) [2]: 12.8%
- Kd [1]: 3560 nM
- koff [1]: 0.00106 s⁻¹
- kon [1]: 298 M⁻¹ s⁻¹

B3: AHNP analogue 8, FCGDGFYACYMDV-OH (peptide)
peptide: FCGDGFYACYMDV-OH
modifications: disulfide 2-9 (inferred)
notes: First AHNP analogue designed; has one more turn Gly than peptide 2; also called peptide 8
- % inhibition (inhibition of T6-17 cell proliferation in MTT assays, 1 µg/mL peptide) [2]: 18.4%
- Kd [1]: 760 nM
- koff [1]: 0.000701 s⁻¹
- kon [1]: 922 M⁻¹ s⁻¹

B4: AHNP analogue 7, GFCDGFYACYMDV-OH (peptide)
peptide: GFCDGFYACYMDV-OH
modifications: disulfide 3-9 (inferred)
notes: Gly placed at the N-terminus before Phe1; also called peptide 7
- Kd [1]: 730 nM
- koff [1]: 0.000808 s⁻¹
- kon [1]: 1110 M⁻¹ s⁻¹

Binder: FCDGFYACYMDV-OH (disulfide 2-8 (inferred), also called peptide 2) [AHNP analogue 2, FCDGFYACYMDV-OH (cyclic)]
- % inhibition (inhibition of T6-17 cell proliferation in MTT assays, 1 µg/mL peptide) [2]: 22.3%
- fold higher affinity than the linear analogue 9 [3]: > 5 fold
- Kd [1]: 650 nM
- koff [1]: 0.000643 s⁻¹
- kon [1]: 990 M⁻¹ s⁻¹

B5: AHNP (anti-HER2/neu peptide mimetic), peptide 1, FCDGFYACYMDV-NH2 (peptide)
peptide: FCDGFYACYMDV-NH2
modifications: disulfide 2-8
notes: Designed from the CDR-H3 loop of rhumAb 4D5; also called anti-HER2 peptide
- % inhibition (inhibition of T6-17 cell proliferation in MTT assays, 1 µg/mL peptide) [2]: 35.5%
- IC50 [4]: 3.4 µM
- fold increase in binding affinity against peptide 2 [3]: > 2 fold
- Kd [1]: 320 nM
- koff [1]: 0.000453 s⁻¹
- kon [1]: 1410 M⁻¹ s⁻¹

B6: AHNP analogue 6, FCDGFYACYKDV-OH (peptide)
peptide: FCDGFYACYKDV-OH
modifications: disulfide 2-8 (inferred)
notes: Met of peptide 2 replaced by Lys; also called peptide 6
- % inhibition (inhibition of T6-17 cell proliferation in MTT assays, 1 µg/mL peptide) [2]: 8.4%
- fold decrease in affinity (Lys substituted for Met) [3]: 8.8 fold
- Kd [1]: 5700 nM
- koff [1]: 0.00125 s⁻¹
- kon [1]: 219 M⁻¹ s⁻¹

B7: AHNP analogue 3, YCDGFYACYMDV-NH2 (peptide)
peptide: YCDGFYACYMDV-NH2
modifications: disulfide 2-8 (inferred)
notes: N-terminal Phe of AHNP replaced with Tyr; also called peptide 3
- % inhibition (inhibition of T6-17 cell proliferation in MTT assays, 1 µg/mL peptide) [2]: 59.6%
- fold improvement in binding (Phe replaced with Tyr) [3]: > 2 fold
- Kd [1]: 150 nM
- koff [1]: 0.000294 s⁻¹
- kon [1]: 1960 M⁻¹ s⁻¹
